Data from publication PMC12049489.
Blank lines part the entries; values can stand above or below the substance they belong to.

How the values were obtained:
Assay in all cases: SPR
[1] = target: anti-BACE1 hIgG1 M252Y / Q311A / N434Y / Y436I (human)
[2] = target: anti-BACE1 hIgG1 M252Y / T307Q / Q311A / N434Y (human)
[3] = target: anti-BACE1 hIgG1 M252Y / V308P / N434Y (human)
[4] = target: anti-BACE1 hIgG1 Q7 (M252Y / Q311A / N434Y / Y436I) (human)
[5] = target: anti-BACE1 hIgG1 M252Y / Q311I / N434Y / Y436I (human)
[6] = target: anti-BACE1 hIgG1 Q5 (M252Y / Q311I / N434Y / Y436I) (human)
[7] = target: anti-Aβ hIgG4 YEY (human)
[8] = target: M252F mIgG2a (mouse)
[9] = target: M252Y.Q309T mIgG2a (mouse)
[10] = target: M252Y mIgG2a (mouse)

Kd [1]: 0.006 µM | Kd [2]: 0.333 µM | Kd [3]: 0.127 µM | Kd [4]: 0.006 µM | Kd [5]: 0.252 µM | Kd [6]: 0.252 µM
Substance: human neonatal Fc receptor (hFcRn) (from UniProt P55899 24-365; P61769 21-119)

Kd [7]: 0.009 µM
Substance: cynomolgus monkey FcRn (from UniProt Q8SPV9 24-365) (receptor)

Kd [8]: 3.32 µM | Kd [9]: 0.308 µM | Kd [10]: 0.826 µM
Substance: mouse FcRn (from UniProt Q61559 22-365) (receptor)
